According to patent US20220241413A1, “COMBINATION THERAPIES USING CD-38 ANTIBODIES” (Takeda Pharmaceutical Company Limited, priority 2019, published 2022):

Columns and labels:
[1] = AB79-1501 study, AB79 plus PomDex combination cohort in RRMM: safety; type: in vivo
Text: This is a multicenter, dose-escalation, open-label, single-arm, Phase 1/2a study designed to determine the safety, tolerability, efficacy, PK, and immunogenicity of AB79 monotherapy in patients with RRMM, and to provide a preliminary assessment of its activity against MM.
The phase 1 portion of the study evaluates administration of single agent AB79 for dose-limiting toxicity (DLT) to determine the MTD or the RP2D for further assessment in phase 2a. A recommended dose below the MTD is identified based on the review of safety, PK, PD (e.g., CD38 occupancy), and clinical data from the phase 1 portion of the study. The safety and tolerability of AB79 is assessed by recording and analyzing TEAEs, dose modifications, treatment discontinuations, vital signs, physical examinations, serum chemistry and hematology, urinalysis, ECGs, and concomitant medications. In phase 1, approximately 6 doses of AB79 are evaluated in ascending cohorts of 3 to 6 patients per cohort. Cohorts may be expanded by enrolling additional patients to further inform selection of the RP2D before enrolling in the Phase 2a portion of the study. In the phase 2a portion of this study, Grade 4 or higher nonhematologic toxicity is monitored starting from the first 10 enrolled patients and then every 10 patients thereafter. Additionally, a cohort of patients receive AB79 combined with the backbone regimen of pomalidomide and dexamethasone (PomDex) in patients with RRMM who have received at least 2 prior therapies and are refractory to the last therapy before study entry.
The study provides a Confirmation Cohort and a Combination Cohort. Each Cohort is administered a dose of 300 mg AB79 subcutaneously weekly for 8 weeks during Cycles 1 and 2 (8 doses), every other week during Cycles 3 to 6 for 16 weeks (8 doses), and then once every 4 weeks until PD in subsequent cycles. Safety and available efficacy, PK, and pharmacodynamics are reviewed at least after 6 patients in each subgroup have received 1 cycle of therapy, then on an ongoing basis. […] The Combination Cohort also receives pomalidomide and dexamethasone (PomDex), and given according to product labeling (Pomalyst USPI). […] In the Combination Cohort, up to 6 patients are initially enrolled and safety in Cycle 1 reviewed. […] If 2 of 6 patients develop DLTs, an additional cohort of 6 patients is tested at a de-escalated dose; an intermediate or more conservative dose schedule may also be implemented as a means to provide an overall lower dose. A lower dose of pomalidomide is also considered based on available safety data. […] If 2 of 6 patients develop DLTs at the lower dose, this cohort is stopped for further evaluation.

[2] = tested on: relapsed/refractory multiple myeloma (RRMM); test: AB79-1501 study, AB79 plus PomDex combination cohort in RRMM: disease response; type: in vivo, human
Text: This is a multicenter, dose-escalation, open-label, single-arm, Phase 1/2a study designed to determine the safety, tolerability, efficacy, PK, and immunogenicity of AB79 monotherapy in patients with RRMM, and to provide a preliminary assessment of its activity against MM. This study is an amendment to the Phase 1/2a study in RRMM described in Example 1 (a) to allow for an increase in the number of patients enrolled in the Phase 1 study; and (b) to add a cohort of patients to evaluate AB79 combined with the backbone regimen of pomalidomide and dexamethasone (PomDex) in patients with RRMM who have received at least 2 prior therapies and are refractory to the last therapy before study entry. PomDex is approved for this patient population and adding an anti-CD38 monoclonal antibody to it, especially one that is given subcutaneously (SC), could be beneficial and convenient for patients.
The study provides a Confirmation Cohort and a Combination Cohort. […]
The preliminary efficacy of AB79 for MM is evaluated by measuring the ORR (defined as the proportion of patients who achieved a PR or better during study) and the composition of sCR, CR, VGPR, and PR as defined by the IMWG Uniform Response Criteria. MR will also be analyzed. In addition, the efficacy of AB79 is assessed in patients by measuring DOR, PFS, and 1-year OS. TTR will also be measured. […]

[3] = AB79 plus PomDex, RRMM, 5 patients treated

Question: Which results are given for “AB79: anti-CD38 monoclonal IgG1 antibody; heavy chain SEQ ID NO:11, light chain SEQ ID NO:12”?
Answer: number of DLTs (neutropenia) ([1]; AB79 plus PomDex cohort): 1 DLT; drug-related SAEs or AEs leading to study drug discontinuation, or on-study deaths ([1]; AB79 plus PomDex combination): No; systemic reactions ([1]; AB79 plus PomDex combination): no systemic reactions; TEAE regardless of causality: cough [1, 3]: 2 patients; TEAE regardless of causality: neutropenia [1, 3]: 2 patients; clinical benefit rate (minor response or better) [2]: 100%; preliminary objective response rate (ORR) [2]: 40%
